The results in this text go back to publication PMC6748439, “Structural Insights into Curli CsgA Cross-β Fibril Architecture Inspire Repurposing of Anti-amyloid Compounds as Anti-biofilm Agents” (PLoS Pathogens, 2019).

Data set [1] concerns the target CsgA, the major curli subunit (recombinant, C-terminal His6-tag) (Escherichia coli) (UniProt P28307). In words: SEC-MALS; freshly purified CsgA concentrated to 1.8 mg/ml, Superdex 75 10/300, miniDAWN TREOS; hexamer beside a majority of monomer. (In general: In gel filtration, larger molecules generally elute earlier.)
Data set [2] concerns the molecule itself. Kind of data set: crystal structure; peptides with free (unmodified) termini, hanging drop, 293 K; micro-crystals, data collected at 100 K; LNIYQY and TASNSS crystals grown in a mixture with TAIVVQ of CsgB, which was not present in the crystals.

One may read the stoichiometry N as the number of molecules, sites or subunits per partner or assembly. On to “CsgA, the major curli subunit (recombinant, C-terminal His6-tag) (from UniProt P28307 21-151) (natural protein)”, for which the stoichiometry N in data set [1] came out at 6.

B1: CsgA segment 129TASNSS134 (R4-R5 loop) (peptide)
peptide: TASNSS
notes: Unmodified termini for crystallography; source: synthetic peptide, bought: GL Biochem (Shanghai) Ltd
Regarding B1, the binding result in data set [2] is on record as “binds”.

B2: CsgA segment 47IYQYGG52 (R1 repeat) (peptide)
peptide: IYQYGG
notes: CsgA residues 47-52 (R1 repeat), numbered on UniProt P28307; Unmodified termini for crystallography; in the seeding assay Ac-IYQYGG-NH2; also called R1 segment 47IYQYGG52; source: synthetic peptide, bought: GL Biochem (Shanghai) Ltd
As to B2, the binding result in data set [2] is listed as “binds”.

B3: CsgA segment 137VTQVGF142 (R5 repeat) (peptide)
peptide: VTQVGF
notes: Unmodified termini for crystallography; in the seeding assay Ac-VTQVGF-NH2, in the ThT assay with D-peptides capped at the C-terminus; source: synthetic peptide, bought: GL Biochem (Shanghai) Ltd
Take B3: in data set [2], the binding result is given as “binds”.

B4: CsgA segment 45LNIYQY50 (R1 repeat) (peptide)
peptide: LNIYQY
notes: CsgA residues 45-50 (R1 repeat), numbered on UniProt P28307; Unmodified termini for crystallography; in the seeding assay Ac-LNIYQY-NH2, in the ThT assay with D-peptides capped at the C-terminus; also called R1 segment 45LNIYQY50; source: synthetic peptide, bought: GL Biochem (Shanghai) Ltd
Regarding B4, the binding result in data set [2] is listed as “binds”.
